The source of these data is US7303917B2, “Modification of pollen coat protein composition” (priority 1998, dated 2007).

The test system of data set [1] is Nicotiana tabacum cv. Delgold pollen. The data set can be described thus: In vitro germination of tobacco pollen. The data set is classed as cell-based. The settings on record: 42 μM papain, 71 μM cycloheximide; for effect on germination and pollen tube growth: 30 μM onchocystatin added to 42 μM papain; for Average Pollen Tube Length / Pollen Germination: 3 h culture, 25° C, 30 μM onchocystatin, 1 mg/ml casein. Here is the method:
Pollen from Nicotiana tabacum cv. Delgold was harvested by placing 5 dehiscent anthers in 1 ml of sterile Brewbaker and Kwack medium (Brewbaker, J. and Kwack, B. Amer. J. Bot. 50: 859-865 (1963)) containing various concentrations of cylcoheximide, or papain, or casein. The medium consisted of 10% w/v sucrose, 100 ppm H3BO3, 300 ppm Ca (NO3)2.4H2O, 200 ppm MgSO4.7H2O, and 100 ppm KNO3 with either 42 μM papain (twice crystallized, Sigma), with or without 30 μM recombinant onchocystatin, or 71 μM cycloheximide (Sigma), or 1 mg/ml casein. Anthers were vortexed in medium for 30 sec followed by centrifugation at 2,000 rpm for 2 min. Pollen was cultured in 50 μl drops in sterile 15×60 mm petri dishes at 25° C. The percentage of pollen grains germinated after 3 h of culture was measured and the average pollen tube length was recorded using an ocular micrometer on an inverted microscope.

Data set [2] concerns the target papain (Carica papaya, UniProt P00784). The data set can be described thus: Protease inhibition assay (papain, Pyr-Phe-Leu-pNA). Format: biochemical. As to conditions: 20 ng papain, 2 to 3 h, read at 410 nm. As for the experimental part: (§1) Mature pollen was isolated by gently squeezing anthers from open flowers just prior to anther dehiscence in a microfuge tube with a pestle to release the pollen grains and suspend them in extraction buffer (100 mM HEPES pH 7.5, 10 mM KCl, 1 mM MgCl2, 1 mM EDTA, 1 mM DTT, 0.4 M sucrose, 0.01% Triton X-100). Pollen grains were filtered through […] mesh to remove debris, pelleted by centrifugation and frozen in liquid nitrogen. Pollen grains were ground to a fine powder, mixed with 1.4 μl per anther of extraction buffer (100 mM MES pH 6.5, 1% Triton X-100) and centrifuged at 4° C. for 5 min. Protein contents of extracts were determined using the BioRad Protein Assay.
(§2) For the protease inhibition assay, 5 μg of protein extract in 50 μl of extraction buffer described above was added to a microtiter plate followed by 20 ng of papain in 50 μl of 50 mM MES pH6.5 and incubated for 15 min at room temperature. Then 100 μl of substrate solution (1 mM Pyr-Phe-Leu-pNA (BACHEM) in activation buffer (30% DMSO, 1 mM EDTA,.1 mM DTT in 50 mM MES pH 6.5)) was added and the plate incubated in the dark at room temperature. The plate was read after 2 to 3 h of incubation on a plate reader at 410 nm. Results were calculated as the percentage of papain protease activity present in the mature pollen protein extract of the non-transformed control plant±standard deviation. […]

The subject of a further data set is anti-OV7 antibodies. The data set can be described thus: Phage ELISA, wells coated with anti-OV7 antibodies. As to conditions: well coated with anti-OV7 antibodies; phage diluted 1 in 100. Format: binding, rabbit. Here is the method: (§3) A SacI and Nco I digest of the coding region of the protease inhibitor clone OV7 (Lustigman et al 1991), is ligated to the pCantab 5E vector (Pharmacia Biotech) Sac I and Nco I sites. This phagemid is transformed into E. coli TG1 cells by electroporation. An overnight culture of 10 μL of these cells are grown in 5 ml of SOBAG medium containing 10 μl of carbenicillin (50 mg/mL) at 28° C. The next day, 0.5 ml of this culture is used to inoculate 25 ml of 2×YT medium, containing 50 μl of carbenicillin (50 mg/ml) and 1.56 ml of 2M glucose and grown for 1.25 h at 37° C., with shaking at 250 rpm. At this point 62.5 μl of helper phage strain M13K07 ([…]) is added and the cells were incubated at 37° C. for 30 min with shaking at 150 rpm, and for another 30 min at 250 rpm. Recombinant phage particles are harvested by centrifugation and PEG precipitation. […]
(§4) After incubating the phage indicated (OV7-those displaying the cysteine protease inhibitor on their surface, M13-wild type or control phage not displaying any foreign protein, and a no phage control) for 2 h, the wells are washed in PBS with 0.5% Tween-20. Phage particles that bound to the antigens are detected with a 1:5000 dilution of anti-M13 antibody/HRP conjugate (Pharmacia). Detection is with the HRP substrate ABTS solution (Pharmacia) for 30 min and absorbance was measured at 410 nm.

The nature of data set [3]: Phage ELISA, no antigen coated in well. Format: binding. Here is the method:
as §3, §4

A further data set concerns trypsin. The data set can be described thus: Phage ELISA, wells coated with trypsin. The data set is classed as binding. The settings on record: well coated with trypsin. As for the experimental part:
as §3, §4
In general terms: ELISA stands for enzyme-linked immunosorbent assay.

In data set [4] the target is T1, papain (Carica papaya, UniProt P00784).
T1 sequence (P00784 whole entry, looked up): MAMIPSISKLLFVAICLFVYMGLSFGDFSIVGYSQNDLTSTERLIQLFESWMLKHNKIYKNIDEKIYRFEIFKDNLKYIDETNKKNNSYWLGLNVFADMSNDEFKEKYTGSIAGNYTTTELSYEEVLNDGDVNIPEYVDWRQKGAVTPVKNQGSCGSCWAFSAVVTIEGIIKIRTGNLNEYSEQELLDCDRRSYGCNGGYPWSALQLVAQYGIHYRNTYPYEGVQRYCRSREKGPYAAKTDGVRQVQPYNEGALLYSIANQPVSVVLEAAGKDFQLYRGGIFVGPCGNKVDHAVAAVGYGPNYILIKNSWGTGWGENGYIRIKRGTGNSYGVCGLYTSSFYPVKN
As to the kind of experiment: Phage ELISA, wells coated with papain. The data set is classed as binding. The settings on record: well coated with papain. Here is the method: as §3, §4

The target in data set [5] is T1, papain. As to the kind of experiment: Protease inhibition assay (papain, Pyr-Phe-Leu-pNA). The settings on record: 20 ng papain, 2 to 3 h, read at 410 nm. Format: biochemical. Here is the method: as §1, §2
This is another data set of the same source.

Entries after “also recorded” stand apart in the source; their conditions may differ.

For `C[C@@H]1C[C@@H]([C@H](O)CC2CC(=O)NC(=O)C2)C(=O)[C@@H](C)C1` [Cycloheximide, cycloheximide], in data set [1], the “effect on germination and pollen tube growth” value (shortened to “effect”) was “inhibited the germination and elongation of pollen tubes”; the “Average Pollen Tube Length” value was determined as 15 μm; the “Pollen Germination” value was found to be 27%.
On to `CC(C)C[C@H](NC(=O)[C@H]1O[C@@H]1C(=O)O)C(=O)NCCCCN=C(N)N` [E-64, reference compound], for which the “percentage of papain protease activity of the non-transformed control plant extract” value on papain [2] amounted to 3%.
As for Casein, in data set [1], the “Average Pollen Tube Length” value is on record as 95 μm and the “Pollen Germination” value is reported as 74%.

B1: OV7: phage displaying the Onchocerca volvulus cysteine protease inhibitor OV7 on their surface as fusion to gene 3 coat protein (protein)
chain: AKNPSKMESKTGENQDRPVLLGGWEDRDPKDEEILELLPSILMKVNEQSNDEYHLMPIKLLKVSSQVVAGVKYKMDVQVARSQCKKSSNEKVDLTKCKKLEGHPEKVMTLEVWEKPWENFMRVEILGTKEV
modifications: left off: large carriers
As for B1, the O.D.410 in the data set with anti-OV7 antibodies is 0.451; in data set [3] (phage diluted 1 in 100) it was 0.125; in the data set on trypsin (phage diluted 1 in 100), 0.037; with papain [4] (phage diluted 1 in 100), 0.788. Further, the Result entry was “very little OV7-plate” in data set [3], “does not bind to trypsin; also recorded: no OV7-trypsin interaction” with trypsin and “binding specifically to papain” with papain [4].

B2: onchocystatin (OV7): recombinant cysteine protease inhibitor onchocystatin (OV7) from Onchocerca volvulus (protein)
chain: AKNPSKMESKTGENQDRPVLLGGWEDRDPKDEEILELLPSILMKVNEQSNDEYHLMPIKLLKVSSQVVAGVKYKMDVQVARSQCKKSSNEKVDLTKCKKLEGHPEKVMTLEVWEKPWENFMRVEILGTKEV
With B2, the “effect” value in data set [1] was “restored the germination and pollen tube growth”.

B3: OV7-GST: cysteine protease inhibitor OV7 conjugated to GST (protein)
chain: AKNPSKMESKTGENQDRPVLLGGWEDRDPKDEEILELLPSILMKVNEQSNDEYHLMPIKLLKVSSQVVAGVKYKMDVQVARSQCKKSSNEKVDLTKCKKLEGHPEKVMTLEVWEKPWENFMRVEILGTKEV
modifications: left off: a dimerising Fc or GST
As for B3, the “percentage of papain protease activity of the non-transformed control plant extract” value in the data set with papain [5] is 2%.

B4: Papain: cysteine protease papain (twice crystallized, Sigma) (protein, UniProt P00784 134-345, looked up)
Papain: IPEYVDWRQKGAVTPVKNQGSCGSCWAFSAVVTIEGIIKIRTGNLNEYSEQELLDCDRRSYGCNGGYPWSALQLVAQYGIHYRNTYPYEGVQRYCRSREKGPYAAKTDGVRQVQPYNEGALLYSIANQPVSVVLEAAGKDFQLYRGGIFVGPCGNKVDHAVAAVGYGPNYILIKNSWGTGWGENGYIRIKRGTGNSYGVCGLYTSSFYPVKN
Take B4: in data set [1], the “effect” value was “inhibited the germination and stunted the growth of pollen tubes”; the “Average Pollen Tube Length” value turned out to be 28 μm; the “Pollen Germination” value is listed as 56%.
